Earlier results on one substance are cited in article PMC4495883.

The data set has as its target insulin-degrading enzyme (112 kDa protein) (Rattus norvegicus) (UniProt P35559). Put plainly: cross-linking.
Chain of UniProt P35559 (P35559 whole entry): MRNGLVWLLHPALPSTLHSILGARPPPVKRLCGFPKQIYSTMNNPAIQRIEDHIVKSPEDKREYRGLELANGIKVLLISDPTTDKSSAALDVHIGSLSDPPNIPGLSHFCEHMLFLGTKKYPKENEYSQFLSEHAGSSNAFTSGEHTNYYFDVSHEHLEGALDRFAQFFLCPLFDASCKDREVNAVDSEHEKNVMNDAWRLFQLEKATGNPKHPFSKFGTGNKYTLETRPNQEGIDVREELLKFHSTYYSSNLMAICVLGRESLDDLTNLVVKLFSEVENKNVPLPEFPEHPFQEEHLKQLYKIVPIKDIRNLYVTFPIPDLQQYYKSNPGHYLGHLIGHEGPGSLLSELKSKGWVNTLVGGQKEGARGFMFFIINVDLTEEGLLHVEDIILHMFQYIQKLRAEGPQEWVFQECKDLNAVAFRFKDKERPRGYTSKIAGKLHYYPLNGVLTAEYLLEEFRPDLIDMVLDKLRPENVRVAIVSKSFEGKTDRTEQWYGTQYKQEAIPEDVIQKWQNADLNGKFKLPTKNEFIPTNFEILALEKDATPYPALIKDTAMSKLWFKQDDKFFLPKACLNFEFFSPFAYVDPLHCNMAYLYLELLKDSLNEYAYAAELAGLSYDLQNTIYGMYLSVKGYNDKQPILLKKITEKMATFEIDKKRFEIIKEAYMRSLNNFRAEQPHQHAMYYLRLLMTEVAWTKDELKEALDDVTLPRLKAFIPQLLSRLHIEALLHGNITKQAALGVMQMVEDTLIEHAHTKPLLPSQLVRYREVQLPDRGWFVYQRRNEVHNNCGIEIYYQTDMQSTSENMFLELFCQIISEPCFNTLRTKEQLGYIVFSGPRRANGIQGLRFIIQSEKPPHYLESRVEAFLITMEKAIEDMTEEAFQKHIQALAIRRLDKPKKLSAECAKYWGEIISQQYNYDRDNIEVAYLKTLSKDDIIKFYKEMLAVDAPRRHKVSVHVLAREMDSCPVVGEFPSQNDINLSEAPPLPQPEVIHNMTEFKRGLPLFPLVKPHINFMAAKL

What is called Kd is a measure of binding affinity in units of concentration. On to ANP (from UniProt P01161), for which the Kd is 60 nM.
